Source: patent publication US20180291110A1 (Hoffmann-La Roche, published 2018)
Changes are numbered by the printed parent chain.

B1: 2/99 VH16/VL2 (antibody, V domains shown)
VH: QQLQESGPGLVKPSETLSLTCTVSGFSLSSYAMSWVRQPPGKGLEWIGYIWSGGSTDYNPSLKSRVTISVDTSKNQVSLKLSSVTAADTAVYYCARRYGTSYPDYGDANGFDPWGPGTLVTVSS
VL: DIQMTQSPSSLSASVGDRVTITCRASQSISSYLNWYQQKPGKAPKLLIYRASTLASGVPSRFSGSGSGTDFTLTISSLQPEDFATYYCQQSYSSSNVDNTFGGGTKVEIK
B2: 2/99 VH6/VL3 (antibody, V domains shown)
VH: QQLVETGGGLIQPGGSLRLSCAASGFSLSSYAMSWVRQAPGKGLEWIGYIWSGGSTDYADSVKGRFTISRDNSKNTLYLQMNSLRAEDTAVYYCARRYGTSYPDYGDANGFDPWGQGTLVTVSS
VL: B1 VL with D1A, I2Y
B3: 2/99 VH17/VL2 (antibody, V domains shown)
VH: B1 VH with V70K
VL: B1 VL
B4: 2/99 VH7/VL4 (antibody, V domains shown)
VH: B2 VH with D60S, S61W, V62A
VL: B1 VL with D1A, I2Y, N34S
B5: 2/99 VH12/VL4 (antibody, V domains shown)
VH: QVQLQESGPGLVKPSETLSLTCTVSGFSLSSYAMSWIRQPPGKGLEWIGYIWSGGSTDYNPSLKSRVTISVDTSKNQFSLKLSSVTAADTAVYYCARRYGTSYPDYGDANGFDPWGQGTLVTVSS
VL: B1 VL with D1A, I2Y, N34S
B6: 2/99 VH12/VL3 (antibody, V domains shown)
VH: B5 VH
VL: B1 VL with D1A, I2Y
B7: 2/99 VH15/VL3 (antibody, V domains shown)
VH: B1 VH with P116Q
VL: B1 VL with D1A, I2Y
B8: 2/99 VH9/VL4 (antibody, V domains shown)
VH: B2 VH with V4L, T6S, I11V, S27T, L28F, I47V, R96K
VL: B1 VL with D1A, I2Y, N34S
B9: 2/99 VH13/VL3 (antibody, V domains shown)
VH: B5 VH with F78V
VL: B1 VL with D1A, I2Y
B10: 2/99 VH21/VL2 (antibody, V domains shown)
VH: B1 VH with Q2S, L3M, E15Q, V36I, P39H, N59A, P60S, S61W, L62A, P116Q
VL: B1 VL
B11: 2/99 VH18/VL2 (antibody, V domains shown)
VH: B5 VH with E16Q, P40H, N60A
VL: B1 VL
B12: 2/99 VH1/VL4 (antibody, V domains shown)
VH: B2 VH with Q1V, I47V
VL: B1 VL with D1A, I2Y, N34S
B13: 2/99 VH2/VL3 (antibody, V domains shown)
VH: EVQLVETGGGLIQPGGSLRLSCAASGFSLSSYAMSWVRQAPGKGLEWVGYIWSGGSTDYADSVKGRFTISRDNSKNTLYLQMNSLRAEDTAVYYCARRYGTSYPDYGDANGFDPWGQGTLVTVSS
VL: B1 VL with D1A, I2Y
B14: 2/99 VH11/VL3 (antibody, V domains shown)
VH: B2 VH with V4L, T6S, I11V, I47V
VL: B1 VL with D1A, I2Y
B15: 2/99 VH20/VL2 (antibody, V domains shown)
VH: B1 VH with Q2S, L3M, E15Q, V36I, P39H, N59A, P116Q
VL: B1 VL
B16: 2/99 VH13/VL4 (antibody, V domains shown)
VH: B5 VH with F78V
VL: B1 VL with D1A, I2Y, N34S
B17: 2/99 VH11/VL4 (antibody, V domains shown)
VH: B2 VH with V4L, T6S, I11V, I47V
VL: B1 VL with D1A, I2Y, N34S
B18: 2/99 VH9/VL3 (antibody, V domains shown)
VH: B2 VH with V4L, T6S, I11V, S27T, L28F, I47V, R96K
VL: B1 VL with D1A, I2Y
B19: 2/99 VH22/VL3 (antibody, V domains shown)
VH: B1 VH with Q2S, L3M, E15Q, P39H, N59A, P60S, S61W, L62A, P116Q
VL: B1 VL with D1A, I2Y
B20: 2/99 VH21/VL3 (antibody, V domains shown)
VH: B1 VH with Q2S, L3M, E15Q, V36I, P39H, N59A, P60S, S61W, L62A, P116Q
VL: B1 VL with D1A, I2Y
B21: 2/99 VH1/VL3 (antibody, V domains shown)
VH: B2 VH with Q1V, I47V
VL: B1 VL with D1A, I2Y
B22: 2/99 VH19/VL3 (antibody, V domains shown)
VH: B1 VH with Q2S, L3M, E15Q, V36I, P39H, N59A, V77F, P116Q
VL: B1 VL with D1A, I2Y
B23: 2/99 VH23-DANG/VL3 (antibody, V domains shown)
VH: QSMQESGPGLVKPSQTLSLTCTVSGFSLSSYAMSWIRQHPGKGLEWIGYIWSGGSTDYASWAKSRVTISKTSTTVSLKLSSVTAADTAVYYCARRYGTSYPDYGDANGFDPWGQGTLVTVSS
VL: B1 VL with D1A, I2Y
B24: 2/99 VH8/VL3 (antibody, V domains shown)
VH: QQLVETGGGLIQPGGSLRLSCAASGFSLSSYAMSWVRQAPGKGLEWIGYIWSGGSTDYASWAKGRFTISKTSTTLYLQMNSLRAEDTAVYYCARRYGTSYPDYGDANGFDPWGQGTLVTVSS
VL: B1 VL with D1A, I2Y
B25: 2/99 VH7/VL3 (antibody, V domains shown)
VH: B2 VH with D60S, S61W, V62A
VL: B1 VL with D1A, I2Y
B26: 2/99 VH18/VL3 (antibody, V domains shown)
VH: B5 VH with E16Q, P40H, N60A
VL: B1 VL with D1A, I2Y
B27: 2/99 VH5/VL3 (antibody, V domains shown)
VH: B2 VH with Q2S, L3M, V4E, I47V, Q116P
VL: B1 VL with D1A, I2Y
B28: 2/99 VH20/VL3 (antibody, V domains shown)
VH: B1 VH with Q2S, L3M, E15Q, V36I, P39H, N59A, P116Q
VL: B1 VL with D1A, I2Y
B29: 2/99 VH2/VL4 (antibody, V domains shown)
VH: B13 VH
VL: B1 VL with D1A, I2Y, N34S
B30: 2/99 VH19/VL2 (antibody, V domains shown)
VH: B1 VH with Q2S, L3M, E15Q, V36I, P39H, N59A, V77F, P116Q
VL: B1 VL
B31: 2/99 VH17/VL3 (antibody, V domains shown)
VH: B1 VH with V70K
VL: B1 VL with D1A, I2Y
B32: 2/99 VH8/VL4 (antibody, V domains shown)
VH: B24 VH
VL: B1 VL with D1A, I2Y, N34S
B33: 2/99 VH22/VL2 (antibody, V domains shown)
VH: B1 VH with Q2S, L3M, E15Q, P39H, N59A, P60S, S61W, L62A, P116Q
VL: B1 VL
B34: 2/99 VH5/VL4 (antibody, V domains shown)
VH: B2 VH with Q2S, L3M, V4E, I47V, Q116P
VL: B1 VL with D1A, I2Y, N34S
B35: 2/99 VH6/VL4 (antibody, V domains shown)
VH: B2 VH
VL: B1 VL with D1A, I2Y, N34S
B36: 2/99 VH16/VL3 (antibody, V domains shown)
VH: B1 VH
VL: B1 VL with D1A, I2Y

Each binder was assayed against T1, human transferrin receptor (recombinant, for surface plasmon resonance) (human, UniProt P02786 89-760) (assay: SPR 25C).
T1 construct: also called huTfR; human transferrin receptor-biotinylated
T1 sequence (P02786 89-760 limits assumed): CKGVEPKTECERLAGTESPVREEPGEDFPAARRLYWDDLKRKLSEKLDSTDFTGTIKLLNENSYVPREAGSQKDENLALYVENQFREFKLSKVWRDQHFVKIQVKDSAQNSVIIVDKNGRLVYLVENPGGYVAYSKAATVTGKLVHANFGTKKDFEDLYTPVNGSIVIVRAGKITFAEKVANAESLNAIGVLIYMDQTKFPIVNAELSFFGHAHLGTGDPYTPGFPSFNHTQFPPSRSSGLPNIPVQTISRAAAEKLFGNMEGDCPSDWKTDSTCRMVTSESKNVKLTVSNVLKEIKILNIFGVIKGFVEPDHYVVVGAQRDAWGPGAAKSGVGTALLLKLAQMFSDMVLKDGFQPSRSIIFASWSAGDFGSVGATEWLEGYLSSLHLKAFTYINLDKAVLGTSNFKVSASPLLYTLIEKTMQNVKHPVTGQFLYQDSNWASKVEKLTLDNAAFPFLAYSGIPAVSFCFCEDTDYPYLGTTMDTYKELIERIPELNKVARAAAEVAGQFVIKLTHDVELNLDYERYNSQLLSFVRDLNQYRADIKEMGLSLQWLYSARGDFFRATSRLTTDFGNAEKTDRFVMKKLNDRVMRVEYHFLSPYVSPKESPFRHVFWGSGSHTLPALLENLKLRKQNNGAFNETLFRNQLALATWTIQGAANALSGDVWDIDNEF
B1 gave a koff of 0.00197 s⁻¹. For B2, the koff was 0.00282 s⁻¹. B3 showed a koff of 0.00105 s⁻¹. In the case of B4, the koff is reported as 0.00125 s⁻¹. B5 was tested, and the koff was 0.00311 s⁻¹. Binder B6 has a koff of 0.00586 s⁻¹. For B7, the koff was 0.00207 s⁻¹. B8 gave a koff of 0.0027 s⁻¹. For B9, the koff was 0.00277 s⁻¹. For B10, the koff was 0.00138 s⁻¹. In the case of B11, the koff is reported as 0.00489 s⁻¹. For B12, the koff was 0.00256 s⁻¹. B13 showed a koff of 0.00384 s⁻¹. B14 gave a koff of 0.00565 s⁻¹. For B15, the koff was 0.00525 s⁻¹. Binder B16 has a koff of 0.0013 s⁻¹. B17 gave a koff of 0.00388 s⁻¹. B18 was tested, and the koff was 0.00417 s⁻¹. B19 showed a koff of 0.00143 s⁻¹. Work on B20 yielded a koff of 0.00194 s⁻¹. For B21, the koff was 0.00431 s⁻¹. Work on B22 yielded a koff of 0.001 s⁻¹. Binder B23 has a koff of 0.000783 s⁻¹. For B24, the koff was 0.001 s⁻¹. Binder B25 has a koff of 0.00145 s⁻¹. Binder B26 has a koff of 0.00665 s⁻¹. Work on B27 yielded a koff of 0.00316 s⁻¹. B28 gave a koff of 0.00715 s⁻¹. In the case of B29, the koff is reported as 0.00263 s⁻¹. For B30, the koff was 0.00769 s⁻¹. B31 showed a koff of 0.000843 s⁻¹. B32 was tested, and the koff was 0.000788 s⁻¹. Work on B33 yielded a koff of 0.00126 s⁻¹. B34 gave a koff of 0.00238 s⁻¹. B35 was tested, and the koff was 0.00187 s⁻¹. For B36, the koff was 0.00173 s⁻¹.
